One assay addresses SARS-CoV RBD (SARS-CoV, UniProt P59594). As to the kind of experiment: ELISA.
The target of another assay is SARS-CoV-2 RBD (SARS-CoV-2, UniProt P0DTC2). As to the kind of experiment: ELISA. (In an ELISA, binding on a coated surface is turned into a signal by an enzyme label.)

Residue numbers refer to the chain shown, from its start.

A word on the EC50: it is the concentration needed to bring the measured effect to its halfway point. The low end stands for an effect from little substance, the high end for a need for much substance.

B1: C165 (antibody, V domains shown)
VH: QVQLVQSGAEVKKPGSSVKVSCKASGGTFSSYAINWVRQAPGQGLEWMGRIIPIVGIANYAQKFQGRVTITADKSSSTAYMELSSLRSEDTAVYYCARDLLDPQLDDAFDIWGQGTMVTVSS
VL: not shown
For the molecule B1, the EC50 with SARS-CoV RBD is > 1000 ng/mL; with SARS-CoV-2 RBD, 4.25 ng/mL.

B2: C126 (antibody, V domains shown)
VH: QVQLQESGPGLVKPSETLSLSCAVSGGSIGSYFWSWIRQPPGKGLEWIGYLHYSGSTNYNPSLKSRVTISVDTSKNQFSLKLSSVTAADTAVYYCARLQWLRGAFDIWGQGTMVTVSS
VL: NFMLTQPHSVSESPGKTVTISCTGSSGSIASNYVQWYQQRPGSAPTTVINEDNQRPSGVPDRFSGSIDSSSNSASLTISGLKTEDEADYYCQSYDSSNLVFGGGTKLTVL
On to B2, for which the EC50 in the assay with SARS-CoV RBD is > 1000 ng/mL; with SARS-CoV-2 RBD it was 4.78 ng/mL.

B3: C129 (antibody, V domains shown)
VH: QVQLVESGGGVVQPGRSLRLSCAASGFTFSSYGMNWVRQAPGKGLEWVAVISYDGSNTYYTDSVKGRFTISRDNSKNTLYLQMNSLRVDDTATYYCAKGPRFGWSYRGGSGFDIWGQGTMVTVSS
VL: DIQMTQSPSSLSASVGDRVTITCQASQDISNYLNWYQQKPGKAPKLLIYDASNLETGVPSRFSGSESGTDFTFTISSLQPEDIATYYCQQYDNLPITFGQGTRLEIK
In turn, B3 returned an EC50 with SARS-CoV-2 RBD of 1.16 ng/mL.

B4: C027 (antibody, V domains shown)
VH: EVQLVESGGGVVQPGRSLRLSCAASGFTFSSYGMHWVRQAPGKGLEWVAVISYDGSNKYYADSVKGRFTISRDNSKNTLYLQMNSLRAEDTAVYYCAKASGIYCSGGDCYSYYFDYWGQGTLVTVSS
VL: not shown
In the case of B4, the EC50 with SARS-CoV RBD came out at 696 ng/mL; with SARS-CoV-2 RBD, 2.65 ng/mL.

B5: C146 (antibody, V domains shown)
VH: EVQLVESGGGLVKPGGSLRLSCAASGLTFTAYRMNWVRQAPGKGLEWLSSISNTNGDIYYADSVKGRFTISRDNAKNSLYLQMNSLRADDTAVYYCARDVASNYAYFDLWGQGTLVTVSS
VL: QSALTQPASVSGSPGQSITISCTGTSSDIGVYNYISWSQQHPGKAPKVMIYDVTNRPSGVSNRFSGSKSGNTASLTISGLQAEDEADYYCSSYRGSSTPYVFGTGTKVTVL
Consider B5, for which the EC50 in the assay with SARS-CoV RBD and in the assay with SARS-CoV-2 RBD was > 1000 ng/mL in each case.

B6: C105 (antibody, V domains shown)
VH: QVQLVESGGGLIQPGGSLRLSCAASGFTVSSNYMSWVRQAPGKGLEWVSVIYSGGSTYYADSVKGRFTISRDNSKNTLYLQMNSLRAEDTAVYYCARGEGWELPYDYWGQGTLVTVSS
VL: QSALTQPPSASGSPGQSVTISCTGTSSDVGGYKYVSWYQQHPGKAPKLMIYEVSKRPSGVPDRFSGSKSGNTASLTVSGLQAEDEADYYCSSYEGSNNFVVFGGGTKLTVL
As for B6, the EC50 in the assay with SARS-CoV RBD is > 1000 ng/mL; in the assay with SARS-CoV-2 RBD, 5.2 ng/mL.

B7: C135 (antibody, V domains shown)
VH: QVQLVESGGGVVQPGRSLRLSCAASGFTFSSYAMHWVRQAPGKGLEWVAVIPFDGRNKYYADSVTGRFTISRDNSKNTLYLQMNSLRAEDTAVYYCASSSGYLFHSDYWGQGTLVTVSS
VL: DIQMTQSPSTLSASVGDRVTITCRASQSISNWLAWFQQKPGKAPKLLIYEASSLESGVPSRFSGSGSGTEFTLTISSLQPDDFATYYCQQYNSYPWTFGQGTKVEIK
Turning to B7, the EC50 in the assay with SARS-CoV RBD is > 1000 ng/mL.

B8: C119 (antibody, V domains shown)
VH: QVQLVQSGAEVKKPGASVKVSCKASGYTFTSYYMHWVRQAPGQGLEWMGIINPSGGSTSYAQKLQGRVTMTRDTSTSTVYMELSSLRSEDTAVYYCARANHETTMDTYYYYYYMDVWGKGTTVTVSS
VL: QSALTQPASVSGSPGQSITISCTGTSSDVGGYKYVSWYQRHPGKAPKLMIYDVSNRPSGVSNRFSGSKSGNTASLTISGLQAEDEADYYCSSYTSSSTSVVFGGGTQLTVL
For B8, the EC50 with SARS-CoV RBD was > 1000 ng/mL; with SARS-CoV-2 RBD, 3.57 ng/mL.

B9: C152 (antibody, V domains shown)
VH: QVQLVQSGAEVKKPGASVKVSCKASGYTFTSYGISWVRQAPGQGLEWMGWISAYNGNTNYAQKLQGRVTMTTDTSTSTAYMELRSLRSDDTAVFYCARDRGGHDFWSGYGFYYYYGMDVWGQGTTVTVSS
VL: DIQMTQSPSSLSASVGDRVTITCRASQGISNYLAWYQQRPGKVPKLLIFAASTLQSGVPSRFSGSGSGTDFTLTISSLQPEDVATYYCQKYNSAPRTFGQGTKVEIK
In turn, B9 had an EC50 with SARS-CoV-2 RBD of 1.88 ng/mL.

B10: C153 (antibody, V domains shown)
VH: EVQLVESGGGLIQPGGSLRLSCAASGFTVSSNYMSWVRQAPGKGLEWVSVIYSGYSTYYVDSVKGRFTISRDNSKNTLYLQMNSLRAEDTAVYYCARVGGAHSGYDGSFDYWGQGTLVTVSS
VL: QSALTQPASVSGSPGQSITISCTGTSSDVGSYNLVSWYQQHPGKAPKLMIYEGSKRPSGVSNRFSGSKSGNTASLTISGLQAEDEADYYCCSYAGSSTWVFGGGTKLTVL
For B10, the EC50 is > 1000 ng/mL with SARS-CoV RBD and 3.17 ng/mL in the assay with SARS-CoV-2 RBD.

B11: C144 (antibody, V domains shown)
VH: EVQLVESGGGLIQPGGSLRLSCAASGFTVSNNYMSWVRQAPGKGLEWVSVIYSGGSTYYADSVKGRFTISRDKSKNTLYLQMNRLRAEDTAVYYCAREGEVEGYNDFWSGYSRDRYYFDYWGQGTLVTVSS
VL: QSALTQPASVSGSPGQSITISCTGTSSDVGGYNYVSWYQQHPGKAPKLMIYDVSNRPSGVSNRFSGSKSGNTASLTISGLQAEDEADYYCSSYTSSSTRVFGTGTKVTVL
For the molecule B11, the EC50 is > 1000 ng/mL in the assay with SARS-CoV RBD and 3.24 ng/mL with SARS-CoV-2 RBD.

B12: C112 (antibody, V domains shown)
VH: QVQLVESGGGVVQPGRSLRLSCAASGFTFSSHAMHWVRQAPGKGLEWVAVISYDGSNKYYADSVKGRFTISRDNSKNTLYLQMNSLRAEDTAVYYCAREDYYDSSGSFDYWGQGTLVTVSS
VL: B11 VL with R99W, T103G, V107L
Regarding B12, the figures for the EC50 with SARS-CoV RBD and with SARS-CoV-2 RBD were > 1000 ng/mL and 3.38 ng/mL, respectively.

B13: C132 (antibody, V domains shown)
VH: QVQLQESGPGLVKPSGTLSLTCAVSGGSISSNNWWSCVRQPPGKGLEWIGEIYHSGSTNYNPSLKSRVTISVDKSKNQFSLKLSSVTAADTAVYYCARGGDTAMGPEYFDYWGQGTLVTVSS
VL: B11 VL with R99L, V100L, T103G, V107L
Take B13: the values for the EC50 with SARS-CoV RBD and with SARS-CoV-2 RBD were > 1000 ng/mL and 2.92 ng/mL, respectively.

B14: C108 (antibody, V domains shown)
VH: QVQLQESGPGLVKPSGTLSLTCAVSGGSISSTNWWSWVRQPPGKGLEWIGEIYHTGSTNYNPSLKSRVTISVDKSKNQFSLKLSSVTAADTAVYYCVRDGGRPGDAFDIWGQGTMVTVSS
VL: B11 VL with S91N
For B14, the figures for the EC50 with SARS-CoV RBD and in the assay with SARS-CoV-2 RBD were > 1000 ng/mL and 5.32 ng/mL, respectively.

B15: C101 (antibody, V domains shown)
VH: QVQLVESGGGLIQPGGSLRLSCAASGFIVSSNYMSWVRQAPGKGLEWVSVIYSGGSTFYTDSVKGRFTISRDNSKNTLYLQMNSLRAEDTAVYYCVRDYGDFYFDYWGQGTLVTVSS
VL: EIVLTQSPGTLSLSPGERATLSCRASQSVSSSYLAWYQQKPGQAPRLLIYGASSRATGIPDRFSGGGSETDFTLTISRLEPEDCAVYYCQQYGSSPRTFGQGTKVEIK
In the case of B15, the EC50 in the assay with SARS-CoV RBD is > 1000 ng/mL; in the assay with SARS-CoV-2 RBD it was 1.51 ng/mL.

B16: C003 (antibody, V domains shown)
VH: B15 VH with Q1E, I28T, F58Y, T60A, E88G, V96A
VL: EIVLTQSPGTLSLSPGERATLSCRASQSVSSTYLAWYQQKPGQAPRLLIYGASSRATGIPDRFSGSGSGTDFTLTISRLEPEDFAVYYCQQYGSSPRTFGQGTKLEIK
In the case of B16, the EC50 in the assay with SARS-CoV RBD was > 1000 ng/mL; with SARS-CoV-2 RBD, 6.37 ng/mL.

B17: C102 (antibody, V domains shown)
VH: B15 VH with T60A, V96A, F102Y
VL: not shown
B17: the EC50 is > 1000 ng/mL in the assay with SARS-CoV RBD and 4.54 ng/mL with SARS-CoV-2 RBD.

B18: C131 (antibody, V domains shown)
VH: QVQLVQSGSEVKKPGSSVKVSCKASGGTFSSYAFSWVRQAPGQGLEWMGRIIPILALANYAQKFQGRVTITADKSTSTAYMELSSLRSEDTAVYYCARVNQAVTTPFSMDVWGQGTTVTVSS
VL: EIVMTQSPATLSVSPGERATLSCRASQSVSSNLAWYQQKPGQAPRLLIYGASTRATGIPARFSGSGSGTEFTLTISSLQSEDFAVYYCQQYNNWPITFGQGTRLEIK
As to B18, the EC50 with SARS-CoV RBD was > 1000 ng/mL; with SARS-CoV-2 RBD it was 1.67 ng/mL.

B19: C106 (antibody, V domains shown)
VH: QLQLQESGPGLVKPSETLSLTCTVSGASVSSGSYYWSWIRQPPGKGLEWIGYIYYSGSTNYNPSLKSRVTISVDTSKNQFSLKLSSVTAADTAVYYCARERPGGTYSNTWYTPTDTNWFDTWGQGTLVTVSS
VL: SYELTQPPSVSVAPGKTARITCGGNNIGSKSVHWYQQKPGQAPVLVIYFDSDRPSGIPERFSGSNSGNTATLTISRVEAGDEADYYCQVWDSSRDHVVFGGGTKLTVL
With B19, the EC50 in the assay with SARS-CoV RBD came to 107 ng/mL; with SARS-CoV-2 RBD, 19 ng/mL.

B20: C156 (antibody, V domains shown)
VH: QVQLVESGGGVVQPGRSLRLSCAASGFTFSNYGMHWVRQAPGKGLEWVAVISYDGNNKYYADSVKGRFTISRDNSKNTLYLQMNSLRAEDTAVYYCAKDPFPLAVAGTGYFDYWGQGTLVTVSS
VL: B19 VL with K16Q, T21S, S31N, I47V, F49D, R94S, H96P, V97W
As for B20, the figures for the EC50 with SARS-CoV RBD and in the assay with SARS-CoV-2 RBD were > 1000 ng/mL and 3.32 ng/mL, respectively.

B21: C212 (antibody, V domains shown)
VH: QVQLVQSGAEVKKPGASVKVSCKASGYTVTGYYIHWVRQAPGQGLEWMGWISPNSGGTNYAQKFQGWVTMTRDMSITTAYMELSRLRSDDTAVYYCARERYFDLGGMDVWGQGTTVTVSS
VL: LTQPASVSGSPGQSITISCTGTSSDVGSYNLVSWYQQHPGKAPKLMIYEDSKRPSGVSNRFSGSKSGNTASLTISGLQAEDEADYYCCSYAGSSTRLFGGGTKLTVL
Take B21: the EC50 with SARS-CoV RBD and in the assay with SARS-CoV-2 RBD was > 1000 ng/mL in each case.

B22: C010 (antibody, V domains shown)
VH: EVQLVESGGGVVQPGRSLRLSCAASGFTFSSYAMHWVRQAPAKGLEWVAVILYDGSGKYYADSVKGRFTISRDNSKNTLYLQMNSLRAEDTAVYYCARDGIVDTALVTWFDYWGQGTLVTVSS
VL: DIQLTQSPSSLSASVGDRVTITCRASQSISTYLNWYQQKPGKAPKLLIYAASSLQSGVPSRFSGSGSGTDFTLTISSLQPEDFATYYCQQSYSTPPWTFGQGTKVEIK
As for B22, the EC50 was > 1000 ng/mL in the assay with SARS-CoV RBD and 5.44 ng/mL in the assay with SARS-CoV-2 RBD.
